Blank lines part the entries; values can stand above or below the substance they belong to.
Assays:
[1] = target: wild-type cholecystokinin A receptor (CCKAR) (UniProt P32238)
CCKAR I296G = CCKAR I296G (UniProt P32238)
[2] = target: wild-type cholecystokinin A receptor (CCKAR) (UniProt P32238); remark: listed apart in the source

pEC50 of CCK-8 in the BRET G-protein dissociation assay (Gβγ-Venus to GRK3ct-luciferase), cells with CCKAR and Gi (Supplementary Table 3, Receptor + Gi) [2]: 7.32
Substance: Gi heterotrimer of the BRET G-protein dissociation assay (from UniProt P63096 1-354; P62873 1-340; P59768 1-71) (complex)

pEC50 of CCK-8 in the BRET G-protein dissociation assay (Gβγ-Venus to GRK3ct-luciferase), cells with CCKAR and Gq (Supplementary Table 3, Receptor + Gq) [2]: 8.42
pEC50 of CCK-8, Gq-coupling activity by BRET assay (Supplementary Table 4, WT) [1]: 9.14
pEC50 of CCK-8, Gq-coupling activity by BRET assay (Supplementary Table 4, I296G) (CCKAR I296G): 8.38
Substance: Gq heterotrimer of the BRET G-protein dissociation assay (from UniProt P50148 1-359; P62873 1-340; P59768 1-71) (complex)

pEC50 of CCK-8 in the BRET G-protein dissociation assay (Gβγ-Venus to GRK3ct-luciferase), cells with CCKAR and Gs (Supplementary Table 3, Receptor + Gs) [2]: 7.92
Substance: Gs heterotrimer of the BRET G-protein dissociation assay (from UniProt P63092 1-394; P62873 1-340; P59768 1-71) (complex)

Continued, substance first:

Substance: Gi heterotrimer of the NanoBiT G-protein recruitment assay (Gαi1, SmBiT-fused human Gβ1, human Gγ2) (from UniProt P63096 1-354; P62873 1-340; P59768 1-71) (complex)
pEC50 of CCK-8, Gi-coupling activity by NanoBiT G-protein recruitment assay (CCKAR-LgBiT and SmBiT-Gβ1 in sf9 cells; Supplementary Table 4, WT) [1]: 6.81
pEC50 of CCK-8, Gi-coupling activity by NanoBiT G-protein recruitment assay (CCKAR-LgBiT and SmBiT-Gβ1 in sf9 cells; Supplementary Table 4, I296G) (CCKAR I296G): 6.66

Substance: Gs heterotrimer of the NanoBiT G-protein dissociation assay (Gαs-LgBiT, Gβ, SmBiT-Gγ) (from UniProt P63092 1-394; P62873 1-340; P59768 1-71) (complex)
pEC50 of CCK-8, Gs-coupling activity by NanoBiT G-protein dissociation assay (Gαs-LgBiT and SmBiT-Gγ in HEK 293T/17 cells; Supplementary Table 4, WT) [1]: 10.5
pEC50 of CCK-8, Gs-coupling activity by NanoBiT G-protein dissociation assay (Gαs-LgBiT and SmBiT-Gγ in HEK 293T/17 cells; Supplementary Table 4, I296G) (CCKAR I296G): 10.5

From publication PMC8604728
